In publication PMC7935881:

What was measured:
[1] = target: no-cys-DgkA (cysteine-free Escherichia coli diacylglycerol kinase) (Escherichia coli); test: solid-state NMR structure; MAS ssNMR, intra- and inter-monomer PRE distance restraints with CS-Rosetta; DgkA reconstituted in bilayers of E. coli membrane total extracts; 272 K
[2] = target: no-cys-DgkA (cysteine-free Escherichia coli diacylglycerol kinase) (Escherichia coli); test: SDS-PAGE; DgkA refolded/reassembled in buffer (8 M urea, 0.2% SDS, 0.08% E. coli membrane total extracts, 0.96% OG, pH 7.8)

**Q.** For “no-cys-DgkA (cysteine-free Escherichia coli diacylglycerol kinase) (enzyme)”, which stoichiometry N [1] is on record?
**A.** 3

**Q.** And the stoichiometry N [2]?
**A.** 3
